Results on three molecules are retold here after article PMC5765368, “Large-Scale Low-Cost NGS Library Preparation Using a Robust Tn5 Purification and Tagmentation Protocol”.

For series [1], the target named is Tn5 transposase, hyperactive allele carrying the E54K and L372P mutations. The series can be described thus: SEC; untagged Tn5 on Superdex200 Increase 10/300 GL (Superdex200 10/300 GL at BZH) in 50 mM Tris pH 7.5, 800 mM NaCl, 0.2 mM EDTA, 2 mM DTT, 10% glycerol; last step of the purification. In general terms: SEC sorts molecules by how far they enter the pores of the column.

In series [2] the target is Tn5 transposase, hyperactive allele carrying the R27S, E54K and L372P mutations. The series is described as above.
Series [3] addresses Tn5 transposase R27S,E54K,L372P (bacterial transposon Tn5 (expressed in …, UniProt Q46731 1-476, R27S;E54K;L372P)). The series can be described thus: ITC; ITC: 50 mM Tris pH 7.5, 800 mM NaCl, 0.1 mM EDTA, 5% glycerol, 25 C; 100 uM DNA titrated into 4 uM protein. The note with it: protein: recombinant; tags: His6-Sumo3 removed by SenP2; one extra N-terminal Ser remains; chain copies: 2; 19 bp duplex with 5' overhang (14 nt for ME-A, 15 nt for ME-B).

For series [4], the target named is Tn5 transposase E54K,L372P (hyperactive) (bacterial transposon Tn5 (expressed in …, UniProt Q46731 1-476, E54K;L372P)). The series is described as above. As to conditions: protein: recombinant; tags: His6-Sumo3 removed by SenP2; one extra N-terminal Ser remains; chain copies: 2; 19 bp duplex with 5' overhang (14 nt for ME-A, 15 nt for ME-B).

In series [1], “Tn5 transposase, hyperactive allele carrying the E54K and L372P mutations (enzyme)” displayed a stoichiometry N of 2.

For the molecule “Tn5 transposase, hyperactive allele carrying the R27S, E54K and L372P mutations (enzyme)”, the stoichiometry N in series [2] stood at 2.

B1: annealed Tn5 linker oligonucleotide (mosaic end); Tn5ME-A/Tn5MErev or Tn5ME-B/Tn5MErev, not stated which (dsDNA)
DNA 1: TCGTCGGCAGCGTCAGATGTGTATAAGAGACAG
DNA 2: CTGTCTCTTATACACATCT
modifications: 5' phosphate on Tn5MErev
Take B1: the Kd came to 12.9 ± 2.1 µM in series [3] and 0.5 ± 0.09 µM in series [4].

As a reminder, the stoichiometry N is a count of units in the complex or per binding partner. As a reminder, the Kd is a measure of binding affinity in units of concentration.
